Test [1] deals with T1, recombinant H2 A/Japan/305/1957 (H2N2) (Influenza A virus A/Japan/305/1957 …, UniProt P03451 16-525). Kind of test: SPR, single cycle kinetics. In general terms: In SPR one partner is held on a chip, and binding of the other changes the refractive index at the surface.
The target of test [2] is full length recombinant H1 residues 18-530 derived from A/California/06/09 (Influenza A virus A/California/06/09 (H1N1)). Kind of test: SPR, single cycle kinetics, HA immobilised.
Test [3] concerns the target Recombinant haemagglutinin HA1 domain (18-344) (A/California/06/09) H1N1 (Influenza A virus A/California/06/09 (H1N1)). Kind of test: SPR, single cycle kinetics, HA1 domain immobilised.
Test [4] deals with recombinant H5 A/Vietnam/1203/04 (H5N1) (Influenza A virus A/Vietnam/1203/04 (H5N1)). Kind of test: SPR, single cycle kinetics, HA immobilised.
Test [5] deals with recombinant H9 A/HongKong/1073/99 (H9N2) (Influenza A virus A/HongKong/1073/99 (H9N2)). Kind of test: SPR, single cycle kinetics, HA immobilised.
The target of test [6] is T1, recombinant H2 A/Japan/305/1957 (H2N2). Kind of test: SPR, single cycle kinetics, HA immobilised.

B1: R1a-G5 (VHH)
VHH: QLQLVESGGGLVQPGGSLRLSCAASGSISRIVTMGWYRQASGKERELVAVIGNYGNTNYADSVKGRFTVSRDNAKDTAYLQMNGLNVEDTAIYYCKTSTTTPPYEYWGQGTQVTVSS
Broadly, the Kd is a measure of binding affinity in units of concentration. Regarding B1, in test [1], the binding result is listed as “no binding (tested: 100 nM)”. For the same molecule, the Kd in test [2] turned out to be 24 nM; in test [3], 26 nM.

B2: R1a-F4 (VHH)
VHH: QVQLVESGGGLVQPGGSLRLSCAASGSISRIVTMGWYRQGPGKERELVAVIGNYGNTNYADSVKGRFTVSRDNAKDTAYLQMNNLNVEDTAMYYCKCSTTTPPHEFWGQGTQVTVSS
As for B2, the binding result in test [1] was “no binding (tested: 100 nM)”. For the same molecule, the Kd in test [2] stood at 7.3 nM; in test [3], 4.7 nM.

B3: R1a-F5 (VHH)
VHH: QLQLVESGGGLVQVGGSLRLSCAASGFPFDGYAIAWFRQAPGKEREGVSCRASDGNTYYAESLKGRLTMSTDNAKNTVYLQMNSLKPEDTAVYYCAAASWVASLWSPSEYDYWGQGTQVTVSS
As to B3, the binding result in test [1] is listed as “no binding (tested: 100 nM)”. The results for the Kd in test [2] and in test [3] were 9.2 nM and 6.1 nM, respectively.

B4: R1a-B6 (VHH)
VHH: QVQLVESGGGLVQPGGSLRLSCAASGSFFSRYRMGWYRQAPGEQRELVASIAYDGSTSYADPVKGRFTISRDNANTVHLQMYSLKPDDTAVYYCNLDPPGILYWGQGTQVTVSS
As to B4, the Kd in test [2] is 0.7 nM; in test [4], 1.7 nM; in test [5], 7.6 nM; in test [6] it was 43 nM.

B5: R1a-E5 (VHH)
VHH: QLQLVESGGGLVQPGGSLRLSCTASGFSLDNYAIGWFRRAPGEEREGVSFITSTSAVTKYADSVKGRFTISRDNAKNTVYLQMTSLKPEDTAVYYCAGTRWVPTMKADEYNYWGQGTQVTVSS
In the case of B5, in test [1], the binding result is “no binding (tested: 100 nM)”. Moreover, the Kd in test [2] stood at 0.6 nM.

B6: R2a-E8 (VHH)
VHH: QLQLVESGGGLVQPGGSLRLSCTASGDIFVMYMIDWYRQAPGKQRELVASIDGRGTPMYADSVKGRFTISRDNAKNTVYLQMNSLKPEDTAVYSCHAKSPLVDNEYWGQGTQVTVSS
Regarding B6, the Kd in test [2] worked out at 0.8 nM; in test [6], 34 nM.

B7: R1a-A5 (VHH)
VHH: QVQLVESGGGLVQPGGSLRLSCSASGSAVLFSTYPMSWYRQAPGKQRELVAAVTTDGSTSYADYAKGRFTISRDNAKNTVYLQMNSLKPEDTAVYYCNARDGFFNRYDYWGQGTQVTVSS
B7: the Kd came to 3.3 nM in test [2], 0.7 nM in test [4] and 186 nM in test [6].

B8: R1a-G6 (VHH)
VHH: QVQLVESGGGLVQSGGSLRLSCAASGSMSRIITMGWYRQAPGMERELVAVIGNNDNTVYGDSVQGRFTVSRDNAKNTAYLQMNSLNAEDTAMYYCKISTLTPPHEYWGQGTQVTVSS
Consider B8, for which, in test [1], the binding result is given as “no binding (tested: 100 nM)”. For the same molecule, the equilibrium dissociation constant (Kd) came to 4.4 nM in test [2] and 4.6 nM in test [3].

B9: R2a-B9 (VHH)
VHH: QVQLVESGGGLVQPGGSLRLSCAASGSAFSINAMGWYRQAPGEEREFVAAITAGGNTYYADSAKARFTISRDNAKNMLYLQMNSLKPEDTAMYYCAATKAFGIATITADYELWGQGTQVTVSS
B9: the binding result in test [1] is reported as “no binding (tested: 100 nM)”. Also, the Kd in test [2] is 0.2 nM.

B10: R2a-F9 (VHH)
VHH: QVQLVESGGGLVQPGGSLRLSCSASGSISSIVTMGWYRQAPGKERELVAVIGNYGNTNYADSVKGRFTVSRDNAKNTVYLQMNSLNVEDTAMYVCKFSSTVAPHEYWGQGTQVTVSS
Turning to B10, the binding result in test [1] was “no binding (tested: 100 nM)”. The equilibrium dissociation constant (Kd) in test [2] stood at 60 nM; in test [3], 79 nM.

B11: R1a-E6 (VHH)
VHH: QVQLVESGGGLVQPGGSLRLSCAASGFTLGAYAIAWFRQAPGKEREGVSCISPSDSFTEYGDSVKGRFTVSRDNAKNTVYLQMNSLQPEDTAVYYCAADPVCTAGWYRPSRFDLWGQGTQVTVSS
Turning to B11, the binding result in test [1] is “no binding (tested: 100 nM)”. Moreover, the Kd in test [2] was found to be 22.8 nM; in test [3] it was 36 nM.

B12: R1a-H6 (VHH)
VHH: QVQLVESGGGLVQAGDSLRLSCTASVLTFSLYRVGWFRQAPGKEREFVAAIDWGDGPTTYADSVKGRFTISRDNAERTAYLQINSLKPEDTAVYYCGAGNTGSSDRSSSYVHWGQGTQVTVSS
Turning to B12, the binding result in test [1] was “no binding (tested: 100 nM)”. The Kd in test [4] was found to be 241 nM.

B13: R1a-C5 (VHH)
VHH: QVQLVESGGGLVQPGGSLRLSCAASNDIFSFYTMGWYLQAIGKQREPVAVIGNGGNTNYAESVKGRFTISRDGAKNTAYLQMNSLKPEDTAVYYCMASGPGGLNVWGQGTQVTVSS
Take B13: the Kd in test [2] was found to be 1.9 nM; in test [4] it was 2.7 nM; in test [5], 22 nM; in test [3] it was 734 nM; in test [6], 67 nM.

B14: R2a-H9 (VHH)
VHH: QVQLVESGGGLVQPGGSLRLSCAASTNIASFYTMGWYRQTPGQQRDVVAVIGNGGNTNYADSVKGRFTISRDGAKNTAHLQMNSLKPEDTDVYYCKASGPGGVILWGQGTQVTVSS
For the molecule B14, the dissociation constant (Kd) turned out to be 2.8 nM in test [2], 4.7 nM in test [3] and 40 nM in test [6].

B15: R2b-D9 (VHH)
VHH: QVQLVESGGGLVQPGGSLRLSCLASGSAFSLYTMGWYRQAPGNQRELVAAITSGESTNYADSVKGRFTISRDNAKNTVYLQMNSLKPEDTAVYYCNADPLSTGWGQYSYWGQGTQVTVSS
For B15, in test [1], the binding result is “no binding (tested: 100 nM)”. Besides, the Kd came out at 0.4 nM in test [2], 1.6 nM in test [4] and 59 nM in test [5].

B16: R2a-G8 (VHH)
VHH: QLQLAESGGGLVQAGGSLRLSCAASGSTLNNNAIGWFRQAPGKEREGVSCMNSRDGTTNYADSVKGRFTISRDVAKNTVYLQMNSLKPEDTAVYFCAVKGFAPFLIGCPWGKAEYDYWGQGTQVTVSS
In the case of B16, the dissociation constant (Kd) turned out to be 3.1 nM in test [2], 9 nM in test [4], 7.7 nM in test [3] and 39 nM in test [6].

B17: R2b-D8 (VHH)
VHH: QVQLVESGGGLVQPGGSLRLSCAASGFTFSWYDVGWYRRAPGKERELVADIASTRGTTNYADSVKGRFTISRDNAKNSVYLQMNSLKPEDTAVYYCNTRRDWRDYWGQGIQVTVSS
Consider B17, for which, in test [1], the binding result is “no binding (tested: 100 nM)”.

B18: R2a-G9 (VHH)
VHH: QVQLVESGGGLVQPGGSLRLSCAASDNIFSFYTMGWYRQSPGKERELVAVIGNGGNTNYADSVKGRFTISRDNGKNKAHLQMNSLKPEDTAVYYCKASGPGGVEVWGQGTQVTVSS
For the molecule B18, the binding result in test [1] is given as “no binding (tested: 100 nM)”. Also, the figures for the Kd in test [2] and in test [3] were 62 nM and 69 nM, respectively.

B19: R2b-E8 (VHH)
VHH: QVQLVESGGGLVQPGGSLRLSCAASGSFFSRYRMGWYRQAPGEQRELVAGITYDDSTNYAGSVKGRFTISRDNAKNTVHLQMNSLKPEDTAVYYCNLNPPGNLYWGQGTQVTVSS
Consider B19, for which the binding result in test [1] is on record as “no binding (tested: 100 nM)”. Moreover, the values for the dissociation constant (Kd) in test [2], in test [4] and in test [5] were 8.2 nM, 3.6 nM and 87 nM, respectively.

Values taken from patent US20140302063A1 (SECRETARY OF STATE FOR HEALTH, published 2014).
